# Target: the molecule itself
# Assay: MST
protein,measurement,value
"MRE11 structured-domain (1-411 aa) (domain or fragment, UniProt P49959 1-411, looked up, amine-reactive AlexaFluor-647 dye on the labelled copy; the titrated copy is unlabelled) MSTADALDDENTFKILVATDIHLGFMEKDAVRGNDTFVTLDEILRLAQENEVDFILLGGDLFHENKPSRKTLHTCLELLRKYCMGDRPVQFEILSDQSVNFGFSKFPWVNYQDGNLNISIPVFSIHGNHDDPTGADALCALDILSCAGFVNHFGRSMSVEKIDISPVLLQKGSTKIALYGLGSIPDERLYRMFVNKKVTMLRPKEDENSWFNLFVIHQNRSKHGSTNFIPEQFLDDFIDLVIWGHEHECKIAPTKNEQQLFYISQPGSSVVTSLSPGEAVKKHVGLLRIKGRKMNMHKIPLHTVRQFFMEDIVLANHPDIFNPDNPKVTQAIQSFCLEKIEEMLENAERERLGNSHQPEKPLVRLRVDYSGGFEPFSVLRFSQKFVDRVANPKDIIHFFRHREQKEKTGEE",Kd,370 ± 80 nM

# Reference: publication doi:10.1101/2023.03.27.534416 (bioRxiv, 2023)
